Several values for one entry are separate records, joined by “and”; a condition that tells them apart may be missing. Equal entries are not always repeated. Primed or numbered codes have the meaning given here. Ends that are not written are not given here. FITC′ = fluorescein isothiocyanate; Ahx = NCCCCCC(=O)O
Assays:
Settings in all cases: both partners purified
[1] = biological target: T1, human importin α3 lacking the IBB domain (hIMPα3ΔIBB) (human, UniProt O00629 59-521); assay: fluorescence polarisation; FITC-tagged AAV6 VP1-BR peptide at 2 nM; importin isoforms serially diluted from an upper concentration of 4.5 µM; three independent experiments
T1 construct: pET30a, His tag with TEV site; also called ΔIBB-IMPα3
T1 sequence (looked up): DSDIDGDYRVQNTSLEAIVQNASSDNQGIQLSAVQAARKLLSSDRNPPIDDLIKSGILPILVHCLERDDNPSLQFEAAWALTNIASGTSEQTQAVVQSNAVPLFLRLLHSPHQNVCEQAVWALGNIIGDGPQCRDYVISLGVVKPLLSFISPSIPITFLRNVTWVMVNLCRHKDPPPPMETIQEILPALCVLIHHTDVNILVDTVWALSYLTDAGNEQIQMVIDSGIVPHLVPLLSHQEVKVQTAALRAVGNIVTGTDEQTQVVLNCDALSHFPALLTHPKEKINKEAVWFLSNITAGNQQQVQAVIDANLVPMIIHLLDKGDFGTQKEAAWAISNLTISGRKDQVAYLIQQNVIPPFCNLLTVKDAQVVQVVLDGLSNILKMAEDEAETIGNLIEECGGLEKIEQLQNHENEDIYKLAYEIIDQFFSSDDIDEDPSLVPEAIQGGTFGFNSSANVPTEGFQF

[2] = biological target: T2, human importin α7 lacking the IBB domain (hIMPα7ΔIBB) (human, UniProt O60684 61-536); assay: as above
T2 construct: pET30a, His tag with TEV site; also called ΔIBB-IMPα7

[3] = biological target: T3, mouse importin α2 lacking residues 1-70 (IMPα2ΔIBB) (mouse, UniProt P52293 71-529); assay: as above
[4] = biological target: T4, human importin α5 lacking the IBB domain (hIMP5ΔIBB) (human, UniProt P52294 58-538); assay: as above
T4 construct: pET30a, His tag with TEV site; also called IMPα5; ΔIBB-IMPα5

[5] = biological target: T3, mouse importin α2 lacking residues 1-70 …; assay: crystal structure; co-purified complex of AAV6 VP1-BR and IMPα2; hanging drop, 0.7 M sodium citrate, 0.01 M dithiothreitol, 0.1 M HEPES pH 7.5, 22°C; 2.3 Å

T2 sequence (O60684 61-536, stated change not applied): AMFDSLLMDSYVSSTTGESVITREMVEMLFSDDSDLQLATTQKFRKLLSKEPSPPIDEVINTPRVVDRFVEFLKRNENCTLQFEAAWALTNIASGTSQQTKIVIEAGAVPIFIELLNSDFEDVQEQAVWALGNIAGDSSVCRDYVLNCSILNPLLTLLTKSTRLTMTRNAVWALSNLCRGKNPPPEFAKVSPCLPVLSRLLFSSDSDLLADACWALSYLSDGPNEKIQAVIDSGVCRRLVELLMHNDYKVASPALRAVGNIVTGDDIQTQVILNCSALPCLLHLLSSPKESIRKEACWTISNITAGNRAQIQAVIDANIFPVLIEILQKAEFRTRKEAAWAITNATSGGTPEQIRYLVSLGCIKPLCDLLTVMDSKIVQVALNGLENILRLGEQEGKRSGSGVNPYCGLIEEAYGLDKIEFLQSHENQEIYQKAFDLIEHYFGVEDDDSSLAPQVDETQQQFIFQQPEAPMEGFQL
T4 sequence (P52294 58-538, stated change not applied): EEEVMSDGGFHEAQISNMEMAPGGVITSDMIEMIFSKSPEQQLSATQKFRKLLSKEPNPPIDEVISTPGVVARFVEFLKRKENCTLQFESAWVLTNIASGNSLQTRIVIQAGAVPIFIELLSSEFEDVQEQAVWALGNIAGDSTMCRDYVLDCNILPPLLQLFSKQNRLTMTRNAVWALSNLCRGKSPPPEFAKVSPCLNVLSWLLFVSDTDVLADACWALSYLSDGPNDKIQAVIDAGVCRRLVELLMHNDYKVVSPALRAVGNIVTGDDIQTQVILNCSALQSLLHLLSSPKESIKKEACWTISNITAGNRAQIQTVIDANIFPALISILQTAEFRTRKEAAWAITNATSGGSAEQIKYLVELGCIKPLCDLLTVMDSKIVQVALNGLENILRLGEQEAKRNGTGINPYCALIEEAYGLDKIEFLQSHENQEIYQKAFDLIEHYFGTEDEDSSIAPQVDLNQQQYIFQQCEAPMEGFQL

B1: AAV6 VP1-BR FITC-tagged peptide (residues 120-172) (peptide)
peptide: {FITC′-Ahx}-QAKKRVLEPFGLVEEGAKTAPGKKRPVEQSPQEPDSSSGIGKTGQQPAKKRLN
notes: also called FITC-tagged AAV6 VP1-BR; AAV6 VP1-BR FITC peptide; source: synthetic peptide (GenScript)
Kd [1]: 198 nM | Kd [2]: 23 nM and 24 nM | Kd [3]: 265 nM | Kd [4]: 71 nM

B2: AAV6 VP1-BR (recombinant, residues 115-174) (domain or fragment)
chain: GRAVFQAKKRVLEPFGLVEEGAKTAPGKKRPVEQSPQEPDSSSGIGKTGQQPAKKRLNFG
notes: A TEV protease site stands upstream of the insert 'for GST-tag cleavage'; 15 residues of it are seen in the final model; also called AAV6 VP1 basic region; source: E. coli (codon optimized, pGEX4T-1), co-purified with IMPα2
binding result [5]: binds

Source: paper PMC11784021, “Structural basis for nuclear import of adeno-associated virus serotype 6 capsid protein” (Journal of Virology, 2024)
